Measurements taken from patent publication US20030087827.
Like-named read-outs stand apart in the source and are kept apart here.

Tests used:
[1] = system: pERTKR-MCA (pyr-Glu-Arg-Thr-Lys-Arg-methylcoumarinamide); assay: enzyme assay, hydrolysis of fluorogenic substrate, least squares fit (EnzFitter)
[2] = biological target: T1, Hexa-D-arginine
T1 chain: RRRRRR

[3] = biological target: T2, Hexa-L-arginine
T2 chain: RRRRRR

[4] = biological target: T3, Nona-L-arginine
T3 chain: RRRRRRRRR

[5] = biological target: pERTKR-MCA (pyr-Glu-Arg-Thr-Lys-Arg-methylcoumarinamide); assay: enzyme assay, hydrolysis of fluorogenic substrate, least squares fit (EnzFitter); remark: listed apart in the source
[6] = system: T4, Nona-L-arginine; remark: listed apart in the source
T4 sequence: RRRRRRRRR

B1: proprotein convertase PC1 (enzyme, UniProt P29120 111-753, looked up, species assumed)
Neuroendocrine convertase 1: SALRDSALNLFNDPMWNQQWYLQDTRMTAALPKLDLHVIPVWQKGITGKGVVITVLDDGLEWNHTDIYANYDPEASYDFNDNDHDPFPRYDPTNENKHGTRCAGEIAMQANNHKCGVGVAYNSKVGGIRMLDGIVTDAIEASSIGFNPGHVDIYSASWGPNDDGKTVEGPGRLAQKAFEYGVKQGRQGKGSIFVWASGNGGRQGDNCDCDGYTDSIYTISISSASQQGLSPWYAEKCSSTLATSYSSGDYTDQRITSADLHNDCTETHTGTSASAPLAAGIFALALEANPNLTWRDMQHLVVWTSEYDPLANNPGWKKNGAGLMVNSRFGFGLLNAKALVDLADPRTWRSVPEKKECVVKDNDFEPRALKANGEVIIEIPTRACEGQENAIKSLEHVQFEATIEYSRRGDLHVTLTSAAGTSTVLLAERERDTSPNGFKNWDFMSVHTWGENPIGTWTLRITDMSGRIQNEGRIVNWKLILHGTSSQPEHMKQPRVYTSYNTVQNDRRGVEKMVDPGEEQPTQENPKENTLVSKSPSSSSVGGRRDELEEGAPSQAMLRLLQSAFSKNSPPKQSPKKSPSAKLNIPYENFYEALEKLNKPSQLKDSEDSLYNDYVDVFYNTKPYKHRDDRLLQALVDILNEEN
Km [1]: The Kms of PC1, PC2, furin, and PACE4 were determined as 11, 42, 8, and 15 µM, respectively

B2: proprotein convertase PACE4 (enzyme, UniProt P29122 150-969, looked up, species assumed)
Proprotein convertase subtilisin/kexin type 6: QVRSDPQALYFNDPIWSNMWYLHCGDKNSRCRSEMNVQAAWKRGYTGKNVVVTILDDGIERNHPDLAPNYDSYASYDVNGNDYDPSPRYDASNENKHGTRCAGEVAASANNSYCIVGIAYNAKIGGIRMLDGDVTDVVEAKSLGIRPNYIDIYSASWGPDDDGKTVDGPGRLAKQAFEYGIKKGRQGLGSIFVWASGNGGREGDYCSCDGYTNSIYTISVSSATENGYKPWYLEECASTLATTYSSGAFYERKIVTTDLRQRCTDGHTGTSVSAPMVAGIIALALEANSQLTWRDVQHLLVKTSRPAHLKASDWKVNGAGHKVSHFYGFGLVDAEALVVEAKKWTAVPSQHMCVAASDKRPRSIPLVQVLRTTALTSACAEHSDQRVVYLEHVVVRTSISHPRRGDLQIYLVSPSGTKSQLLAKRLLDLSNEGFTNWEFMTVHCWGEKAEGQWTLEIQDLPSQVRNPEKQGKLKEWSLILYGTAEHPYHTFSAHQSRSRMLELSAPELEPPKAALSPSQVEVPEDEEDYTAQSTPGSANILQTSVCHPECGDKGCDGPNADQCLNCVHFSLGSVKTSRKCVSVCPLGYFGDTAARRCRRCHKGCETCSSRAATQCLSCRRGFYHHQEMNTCVTLCPAGFYADESQKNCLKCHPSCKKCVDEPEKCTVCKEGFSLARGSCIPDCEPGTYFDSELIRCGECHHTCGTCVGPGREECIHCAKNFHFHDWKCVPACGEGFYPEEMPGLPHKVCRRCDENCLSCAGSSRNCSRCKTGFTQLGTSCITNHTCSNADETFCEMVKSNRLCERKLFIQFCCRTCLLAG
Km [1]: The Kms of PC1, PC2, furin, and PACE4 were determined as 11, 42, 8, and 15 µM, respectively

B3: recombinant truncated mouse furin (protein)
chain: DVYQEPTDPKFPQQWYLSGVTQRDLNVKEAWAQGFTGHGIVVSILDDGIEKNHPDLAGNYDPGASFDVNDQDPDPQPRYTQMNDNRHGTRCAGEVAAVANNGVCGVGVAYNARIGGVRMLDGEVTDAVEARSLGLNPNHIHIYSASWGPEDDGKTVDGPARLAEEAFFRGVSQGRGGLGSIFVWASGNGGREHDSCNCDGYTNSIYTLSISSATQFGNVPWYSEACSSTLATTYSSGNQNEKQIVTTDLRQKCTESHTGTSASAPLAAGIIALTLEANKNLTWRDMQHLVVQTSKPAHLNADDWATNGVGRKVSHSYGYGLLDAGAMVALAQNWTTVAPQRKCIVEILVEPKDIGKRLEVRKAVTACLGEPNHITRLEHVQARLTLSYNRRGDLAIHLISPMGTRSTLLAARPHDYSADGFNDWAFMTTHSWDEDPAGEWVLEIENTSEANNYGTLTKFTLVLYGTAPEGLSTPPESSGCKTLTSSQACVVCEEGYSLHQKSCVQHCPPGFIPQVLDTHYSTENDVEIIRASVCTPCHASCATCQGPAPTDCLSCPSHASLDPVEQTCSRQSQSSRESRPQQQPPALRPEVEMEPRLQAGLASHLPE
cleavage of the peptide by furin (HPLC) [2]: essentially no cleavage was observed after 24 h of incubation (results not shown)
cleavage of the peptide by furin (HPLC) [3]: essentially no cleavage was seen after six hours incubation with furin (results not shown). After 24 hours, partial digestion of hexa-L-arginine (SEQ ID NO 14) had occurred, producing some penta-L-arginine
cleavage of the peptide by furin (HPLC) [4]: Cleavage of nona-L-arginine (SEQ ID NO 13) was first observed ˜40 min after reaction with furin had commenced, with the appearance of hexa- and hepta-L-arginine
Km [5]: The Kms of PC1, PC2, furin, and PACE4 were determined as 11, 42, 8, and 15 µM, respectively

B4: proprotein convertase PC2 (enzyme, UniProt P16519 110-638, looked up, species assumed)
Neuroendocrine convertase 2: GYRDINEIDINMNDPLFTKQWYLINTGQADGTPGLDLNVAEAWELGYTGKGVTIGIMDDGIDYLHPDLASNYNAEASYDFSSNDPYPYPRYTDDWFNSHGTRCAGEVSAAANNNICGVGVAYNSKVAGIRMLDQPFMTDIIEASSISHMPQLIDIYSASWGPTDNGKTVDGPRELTLQAMADGVNKGRGGKGSIYVWASGDGGSYDDCNCDGYASSMWTISINSAINDGRTALYDESCSSTLASTFSNGRKRNPEAGVATTDLYGNCTLRHSGTSAAAPEAAGVFALALEANLGLTWRDMQHLTVLTSKRNQLHDEVHQWRRNGVGLEFNHLFGYGVLDAGAMVKMAKDWKTVPERFHCVGGSVQDPEKIPSTGKLVLTLTTDACEGKENFVRYLEHVQAVITVNATRRGDLNINMTSPMGTKSILLSRRPRDDDSKVGFDKWPFMTTHTWGEDARGTWTLELGFVGSAPQKGVLKEWTLMLHGTQSAPYIDQVVRDYQSKLAMSKKEELEEELDEAVERSLKSILNKN
cleavage of the peptide by PC2 (HPLC) [6]: essentially no cleavage was observed after 24 h of incubation (results not shown)
Km [1]: The Kms of PC1, PC2, furin, and PACE4 were determined as 11, 42, 8, and 15 µM, respectively
